Measured values taken from article PMC2731490 (Nature, 2009).

How the values were obtained:
[1] = molecular target: T1, pol V Mut (UmuD′2C–RecA), wild-type RecA (Escherichia coli, UniProt P0A7G6); assay: hairpin primer/template extension, […]-labelled DNA; type: biochemical; settings: nucleotide added after activation; RecA* absent; hydrolysis not needed
T1 sequence (P0A7G6 2-353): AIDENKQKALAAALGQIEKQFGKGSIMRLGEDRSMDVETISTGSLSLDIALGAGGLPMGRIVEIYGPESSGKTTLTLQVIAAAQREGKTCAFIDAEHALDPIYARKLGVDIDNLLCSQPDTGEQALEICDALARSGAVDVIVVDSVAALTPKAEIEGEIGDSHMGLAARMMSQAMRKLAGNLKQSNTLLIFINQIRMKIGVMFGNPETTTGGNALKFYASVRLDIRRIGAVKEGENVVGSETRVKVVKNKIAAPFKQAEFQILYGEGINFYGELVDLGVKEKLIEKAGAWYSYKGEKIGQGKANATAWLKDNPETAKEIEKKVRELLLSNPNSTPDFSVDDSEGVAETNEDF
T1 sequence (P04152 1-422 partner): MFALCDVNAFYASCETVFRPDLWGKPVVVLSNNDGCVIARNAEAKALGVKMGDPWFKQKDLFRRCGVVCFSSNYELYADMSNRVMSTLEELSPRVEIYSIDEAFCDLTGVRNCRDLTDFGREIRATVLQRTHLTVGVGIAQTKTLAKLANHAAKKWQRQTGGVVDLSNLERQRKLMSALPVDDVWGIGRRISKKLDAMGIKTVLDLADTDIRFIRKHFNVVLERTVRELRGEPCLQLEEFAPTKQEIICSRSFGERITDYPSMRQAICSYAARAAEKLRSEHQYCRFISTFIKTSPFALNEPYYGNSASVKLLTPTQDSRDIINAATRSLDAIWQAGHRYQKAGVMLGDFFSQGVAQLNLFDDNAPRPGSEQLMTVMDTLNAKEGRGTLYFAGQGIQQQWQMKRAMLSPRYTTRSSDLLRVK
T1 sequence (P0AG11 25-139 partner limits assumed): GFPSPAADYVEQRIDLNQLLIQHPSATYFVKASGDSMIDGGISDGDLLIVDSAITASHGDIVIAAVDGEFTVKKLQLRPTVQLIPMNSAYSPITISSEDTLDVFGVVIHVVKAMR

[2] = molecular target: T2, DNA polymerase V (UmuD′2C) (E. coli, UniProt P04152 1-422; P0AG11 25-139)
T2 sequence (looked up) 1: T1 sequence (P04152 1-422 partner)
T2 sequence (looked up) 2: T1 sequence (P0AG11 25-139 partner limits assumed)

[3] = molecular target: T3, UmuC (E. coli, UniProt P04152 1-422); assay: SEC-MALS
T3 sequence (looked up): T1 sequence (P04152 1-422 partner)

Nc1ncnc2c1ncn2[C@@H]1O[C@H](COP(=O)(O)OP(=O)(O)OP(=O)(O)O)[C@@H](O)[C@H]1O [ATP]
hairpin primer/template extension, 32P-labelled DNA [1]: pol V Mut activated with wild-type RecA* is inactive in the absence of added ATP or ATPγS

B1: wild-type RecA (natural protein, E. coli, UniProt P0A7G6 1-353, looked up)
chain: MAIDENKQKALAAALGQIEKQFGKGSIMRLGEDRSMDVETISTGSLSLDIALGAGGLPMGRIVEIYGPESSGKTTLTLQVIAAAQREGKTCAFIDAEHALDPIYARKLGVDIDNLLCSQPDTGEQALEICDALARSGAVDVIVVDSVAALTPKAEIEGEIGDSHMGLAARMMSQAMRKLAGNLKQSNTLLIFINQIRMKIGVMFGNPETTTGGNALKFYASVRLDIRRIGAVKEGENVVGSETRVKVVKNKIAAPFKQAEFQILYGEGINFYGELVDLGVKEKLIEKAGAWYSYKGEKIGQGKANATAWLKDNPETAKEIEKKVRELLLSNPNSTPDFSVDDSEGVAETNEDF
stoichiometry N [2]: 1 RecA per UmuC per UmuD′2

B2: UmuD′ (natural protein, E. coli, UniProt P0AG11 25-139, looked up)
chain: T1 sequence (P0AG11 25-139 partner limits assumed)
binding result [3]: binds
